# Source: patent US7510715 (US Dept. of Health and Human Services, dated 2009)
# B1: human CCR5 on cells (CEM.NKR-CCR5 transfectants; PM1 T cells; PBMCs; macrophages) (receptor)
# chain: not shown
# notes: whole, on cells; also called hCCR5
# Experiments:
# [1] = molecular target: B1; test: saturation binding of 125I-C-18 to CEM.NKR-CCR5 cells, 90 minutes at 4° C.
# human cyclophilin A = molecular target: T1, human cyclophilin A (human, UniProt P62937 1-165); test: competition with 125I-C-18 on CEM.NKR.CCR5 cells (method in paragraph 111)
# T1 construct: also called recombinant human cyclophilin
# T1 sequence (P62937 whole entry): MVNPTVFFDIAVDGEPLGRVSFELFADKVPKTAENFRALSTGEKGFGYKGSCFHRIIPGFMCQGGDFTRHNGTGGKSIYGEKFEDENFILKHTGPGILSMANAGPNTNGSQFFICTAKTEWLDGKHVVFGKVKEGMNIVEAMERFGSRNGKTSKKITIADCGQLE
# [2] = molecular target: B1; test: saturation binding of 125I-labeled human MIP-1β to CEM.NKR-CCR5 cells, 90 minutes at 4° C.
# Method: The bound fraction was then measured and the dissociation constant for ligand binding calculated using a Graph Pad Prism software program (Mackiev, Cupertino, Calif.). […] Cells were then washed and the bound fraction measured radioactively.
binder,measurement,setting,value
"Toxoplasma gondii cyclophilin-18 (C-18), recombinant (ligand) not shown",Kd,[1],3.65 nM
B1,binding result,human cyclophilin A,no binding
"human macrophage inflammatory protein 1β (MIP-1β) (ligand, UniProt P13236 24-92, looked up, also called MIP-1B; human MIP-1 B) APMGSDPPTACCFSYTARKLPRNFVVDYYETSSLCSQPAVVFQTKRSKQVCADPSESWVQEYVYDLELN",Kd,[2],0.559 nM
